B1: H5-Ab2 (antibody, V domains shown)
VH: EVQLVQSGAEVKKPGSSVKVSCRSSGGPFRSNAISWVRQAPGQGLEWMGGIIAVFGTVEYAQKFQGRVTITADDSRSTVYMELRSLRSDDTAFYYCASAHGYHNYGSRGYFVSWGQGTLVTVSS
VL: DIVMTQSPGTLSLSPGERATLSCRASQSVSSNYLAWYQQKLGQPPRLLIYGASSRATGIPDRFSGSGSGTDFTLTISRLEPEDYAVYYCQQYGSSPHTFGQGTKVEIK
B2: H5-Ab4 (antibody, V domains shown)
VH: EVQLVESGGGAVQPGRSLRLSCAVSGFTFSSYGMNWVRQAPGKGLEWVAVISYDGSNTYYADSVKGRFTISRDDSKNTLFLQMNSLRADDTAVYYCAKDFQLRLLRYFDWLSSPFDHWGQGTLVTVSS
VL: DIQLTQSPGTLSLSPGERATLSCRASQSIRSNFLAWYQQTPGQGPRLLIYGASSRATGIPDRFSGSGSGTDFTLTISGLEPEDFAVYYCQQYASSPQTFGQGTKVEIK

Target: T1, H1N1 HA (A/New Caledonia/20/1999), wild type (Influenza A virus A/New …, UniProt Q6WG00, strain)
T1 construct: also called H1 wt; source: provided by D. Lingwood
Assay: ELISA

Row | Binder | binding result
1 | B1 | binds
2 | B2 | binds

Source: paper PMC5551578 (The Journal of Experimental Medicine, 2017)
